Key:
[1] = biological target: T1, human MS4A4A ECL2 peptide (amino acid residues 159-179), free (human); test: peptide ELISA, supernatant
T1 construct: synthetic peptide; also called huMS4A4A-ELC2 free-peptide
T1 peptide: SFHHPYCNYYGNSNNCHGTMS

[2] = biological target: T2, human MS4A4A ECL1 peptide (amino acid residues 86-98) (human); test: peptide ELISA
T2 construct: synthetic peptide
T2 peptide: CMASNTYGSNPIS
How it was run: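 Free or BSA-conjugated peptides were coated at 2 or 10 […] in 0.05M carbonate buffer, pH 9.6, overnight at 4 °C, then blocked 1 h with PBS+0.5% BSA+0.05% Tween20. Antibodies were bound 30 min at room temperature with shaking. TMB was developed 5-10 min, stopped, and absorbance read at 650 nm.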

cynomolgus (cyno) MS4A4A [3] = biological target: T3, cynomolgus (cyno) MS4A4A (cynomolgus); test: FACS, stably transfected cells
T3 construct: also called cy4A; Cyno 4A

human MS4A4A [4] = biological target: T4, human MS4A4A (human, UniProt Q96JQ5 1-239); test: FACS, K562 cells, supernatant; K562 cells overexpressing h4A
Procedure: (§1) Positive clones identified in Example 22 above were expanded and then rescreened for specificity against U937, K562, and/or 300.19 cells stably overexpressing human MS4A4A or cyno MS4A4A and parental U937, K562, and/or 300.19 cells. These experiments were performed using supernatants from hybridoma clones which had undergone further expansion after initial selection. Briefly, stably transfected cells were labeled with LIVE/DEAD Fixable Aqua Dead Cell Stain Kit (ThermoFisher Scientific Cat#L34957) on ice for 30 minutes. […] 2×10⁵ cells were aliquoted per well in 96-well U-bottom plates and incubated with 50 μl of culture supernatant on ice for 30 minutes. […] Following this secondary incubation, the cells were again washed twice with ice-cold FACS buffer and resuspended in a final volume of 200 μl of FACS buffer. Analysis was performed on a FACS Canto system (BD Biosciences), with gates drawn to exclude dead (Aqua-positive) cells.
(§2) The APC ratio was calculated for each antibody as follows. […] For cell lines overexpressing human MS4A4A (h4A) or cyno MS4A4A (cy4A), the ration was calculated by comparing the binding measured to the binding observed on the corresponding parental cell lines.

human MS4A4A [5] = biological target: T4, human MS4A4A; test: FACS, U937 cells, supernatant; U937 cells overexpressing h4A
Procedure: as §1, §2

[6] = biological target: T5, human MS4A6A ECL1 peptide (amino acid residues 68-85) (human); test: array SPR
T5 peptide: SASFSPNFTQVTSTLLNS

[7] = biological target: T2, human MS4A4A ECL1 peptide (amino acid …); test: array SPR
[8] = biological target: T6, human MS4A6A ECL2 peptide (amino acid residues 138-185) (human); test: array SPR
T6 peptide: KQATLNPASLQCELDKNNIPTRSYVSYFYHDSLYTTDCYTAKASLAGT

[9] = biological target: T7, BSA-conjugated human MS4A4A ECL2 peptide (amino acid residues 159-179) (human, conjugated to BSA (site not stated)); test: ELISA, hybridoma supernatant
T7 construct: also called MS4A4A-ECL2 BSA conjugated peptide; BSA-MS4A4A-ELC2 peptide
T7 peptide: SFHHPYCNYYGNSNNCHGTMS

[10] = biological target: T1, human MS4A4A ECL2 peptide (amino acid …); test: peptide ELISA
human MS4A4A [11] = biological target: T4, human MS4A4A; test: FACS, 300.19 cells, supernatant
cynomolgus (cyno) MS4A4A [12] = biological target: T3, cynomolgus (cyno) MS4A4A; test: FACS, 300.19 cells, supernatant
human MS4A4A [13] = biological target: T4, human MS4A4A; test: FACS, U937 cells, supernatant
Procedure: as §1, §2

human MS4A4A [14] = biological target: T4, human MS4A4A; test: FACS, K562 cells, supernatant
human MS4A4A [15] = biological target: T4, human MS4A4A; test: FACS, HEK293, supernatant
cynomolgus (cyno) MS4A4A [16] = biological target: T3, cynomolgus (cyno) MS4A4A; test: FACS, HEK293, supernatant
[17] = biological target: T7, BSA-conjugated human MS4A4A ECL2 …; test: ELISA, supernatant
Procedure: Briefly, 96-well polystyrene plates were coated with 1-10 μg/ml of synthetic free or BSA-conjugated peptides in coating buffer (0.05M carbonate buffer, pH9.6, Millipore Sigma C3041) overnight at 4° C. Coated plates were then blocked with ELISA diluent (PBS+0.5% BSA+0.05% Tween20) for 1-hour, washed 3×300 μL in PBST (PBS+0.05% Tween20, Thermo Cat#28352), and then the antibodies were added to the plate ([…]). After 30 mins incubation (room temperature, with shaking), the plates were washed 3×300 μL in PBST. […] After a final set of washes (3×300 μL in PBST), 50 μL of TMB substrate (BioFx TMBW-1000-01) was added and the reaction was then quenched after 5-10 mins with 50 μL of stop solution (BioFx BSTP-1000-01). The quenched reaction wells were detected for absorbance at 650 nm with a BioTek Synergy Microplate Reader using GENS 2.04 software.

cynomolgus (cyno) MS4A4A [18] = biological target: T3, cynomolgus (cyno) MS4A4A; test: flow cytometry (anti-mouse IgG Fc-APC), hybridoma supernatant on 300.19 cells transfected with cyno MS4A4A
Procedure: Flow cytometry was performed as follows. Briefly, transiently-transfected cells were labeled with LIVE/DEAD Fixable Aqua Dead Cell Stain Kit (ThermoFisher Scientific Cat#L34957) on ice for 30 minutes. […] 2×10⁵ cells were aliquoted per well in 96-well U-bottom plates and incubated with 50 μl of culture supernatant on ice for 30 minutes. […] Following this secondary incubation, the cells were again washed twice with ice-cold FACS buffer and resuspended in a final volume of 200 μl of FACS buffer. Analysis was performed on a FACS Canto system (BD Biosciences), with gates drawn to exclude dead (Aqua-positive) cells.

B1: anti-MS4A4A antibody 4A-206 (murine) (antibody, V domains shown)
VH: EVKLVESGGGLVKPGGSLKLSCAASGFTFSSYTMSWVRQTPEKRLEWVASLSSGGSTYYPDSVKGRFTISRDNARNILYLQMSSLRSEDTAMYYCAKDYYVSSYRWYFDVWGAGTTVTVSS
VL: DIQMTQITSSLSASLGDRVTISCRASQDISNYLNWYQQKPDGTVKLLIYYTSNLHSGVPSRFSGSGSGTDYSLTISNLEQEDIATYFCQQGKSFPWTFGGGTKLEIK
notes: murine hybridoma antibody
B1: no binding [1]; no binding [2]; binds (cynomolgus (cyno) MS4A4A [3]). The “fold increase in MFI” value (human MS4A4A [4]) was > 2 fold and the “fold increase in MFI” value (human MS4A4A [5]) was > 2 fold.

B2: anti-MS4A4A antibody 4A-24 (antibody, V domains shown)
VH: EVKLEESGGGLVQPGGSMKLSCAASGFTFSDAWMDWVRQSPEKGLEWVAEIRDNADNHPTYYAESVKGRFTISRDDSKSSVYLQMNSLRAEDTGIYYCTSDYYGSHWGQGTTLTVSS
VL: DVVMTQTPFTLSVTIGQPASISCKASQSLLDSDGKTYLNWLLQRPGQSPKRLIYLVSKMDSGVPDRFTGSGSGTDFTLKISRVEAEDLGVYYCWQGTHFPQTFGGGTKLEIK
notes: murine hybridoma antibody
B2: no binding (tested: 2000 nM) [6]; no binding (tested: 2000 nM) [7]; no binding (tested: 2000 nM) [8]. B2: no binding [9].

B3: anti-MS4A4A antibody 4A-213 (murine) (antibody, V domains shown)
VH: QVQLKESGPGLVAPSQSLSITCTVSGFSLTSYGVHWVRQPPGKGLEWLGVIWVGGSTNYNSALMSRLSISKDNSKSQVFLKMNSLQTDDTAMYYCARAVYYYGSSYYFDYWGQGTTVTVSS
VL: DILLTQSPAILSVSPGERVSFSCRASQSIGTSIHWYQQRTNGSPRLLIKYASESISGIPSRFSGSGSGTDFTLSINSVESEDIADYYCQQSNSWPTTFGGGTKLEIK
notes: murine hybridoma antibody
B3: no binding [1]; no binding [2]; binds (cynomolgus (cyno) MS4A4A [3]). The “fold increase in MFI” value (human MS4A4A [4]) was > 2 fold.

B4: anti-MS4A4A antibody 4A-214 (antibody, V domains shown)
VH: EVKLEESGGGLVQPGRSMKLSCVASGFTFSNYWMNWVRQSPEKGLEWVAEIRLKSNNYATHYAESVKGRFTISRDDSKSSVYLQMNNLRAEDTGIYYCSSMIIVDYWGQGTTVTVSS
VL: DIVLTQSPASLTVSLGQRATISCRASQSVSSSTYSYLHWYQQRPGQPPKLLIKYASNLESGVPARFSGSGSGTVFTLNIHPVEEEDTATYYCQHSWEIPLTFGAGTKLEMK
notes: murine hybridoma antibody
With B4 the binding result [10] was “binds”, the binding result [2] was “no binding” and the “fold increase in MFI” value (human MS4A4A [11]) was > 2 fold. The “fold increase in MFI” value (cynomolgus (cyno) MS4A4A [12]) was > 2 fold, the “fold increase in MFI” value (human MS4A4A [13]) was > 2 fold and the “fold increase in MFI” value (human MS4A4A [14]) was > 2 fold.

B5: anti-MS4A4A antibody 4A-23 (antibody, V domains shown)
VH: EVQLQQSGPELVKPGASVKMSCQASGYTFTDYNIHWVKQSHGKSLKWIGYINPNNDDTTFNQKFKGKATLTVNKSSSTAYMELRSLTSEDSAVYYCARSPYCYFDVWGTGTTVTVSS
VL: DIQMTQSPSSLSASLGGKVTITCKASQDINKYIVWYQHKPGKGPRLLINYTSTLQPGIPSRFSGGGSGGDYSFSISNLEPEDIATYYCLQYDNLWTFGGGTKLEIK
notes: murine hybridoma antibody
With B5 the “Human 4A:parental cell ratio” value (human MS4A4A [15]) was 1.96 ratio, the “Cyno 4A:parental cell ratio” value (cynomolgus (cyno) MS4A4A [16]) was 1.22 ratio and the binding result [17] was “binds”. B5: no binding (tested: 2000 nM) [6]; no binding (tested: 2000 nM) [7]; no binding (tested: 2000 nM) [8]. B5: no binding (cynomolgus (cyno) MS4A4A [18]).

From patent US20230126400A1 (Alector, published 2023)
